Starred links: 1 amine or outer side, 2 acyl side, 3 side chain; linkers in the order of their positions; H or OH if unused. Positions of bridges follow the written chain, without caps; N, C: chain ends. Non-standard residues stand in square brackets, D forms with d. *: point of attachment. cholesteryl‑oxycarbonylmethyl = CC(C)CCC[C@@H](C)[C@H]1CC[C@H]2[C@@H]3CC=C4C[C@@H](OC(=O)C*)CC[C@]4(C)[C@H]3CC[C@]12C; B21 = 2,7-dimethylnaphtyl, c1cc2ccc(C[*:2])cc2cc1C[*:1]; pXylylene = c1cc(C[*:2])ccc1C[*:1]; Suc = O=C(CCC(=O)[*:2])[*:1]; hCys = N[C@@H](CCS)C(=O)O
B1: peptide 82 (peptide)
peptide: Suc-ECYLRCIEELIRKAQEQQEKNEAALRGSGC(cholesteryl‑oxycarbonylmethyl)-NH2
modifications: linker 2-6 via pXylylene
SMILES: CC[C@H](C)[C@H](NC(=O)[C@H](CC(C)C)NC(=O)[C@H](CCC(=O)O)NC(=O)[C@H](CCC(=O)O)NC(=O)[C@@H](NC(=O)[C@@H]1CSCc2ccc(cc2)CSC[C@H](NC(=O)[C@H](CCC(=O)O)NC(=O)CCC(=O)O)C(=O)N[C@@H](Cc2ccc(O)cc2)C(=O)N[C@@H](CC(C)C)C(=O)N[C@@H](CCCNC(=N)N)C(=O)N1)[C@@H](C)CC)C(=O)N[C@@H](CCCNC(=N)N)C(=O)N[C@@H](CCCCN)C(=O)N[C@@H](C)C(=O)N[C@@H](CCC(N)=O)C(=O)N[C@@H](CCC(=O)O)C(=O)N[C@@H](CCC(N)=O)C(=O)N[C@@H](CCC(N)=O)C(=O)N[C@@H](CCC(=O)O)C(=O)N[C@@H](CCCCN)C(=O)N[C@@H](CC(N)=O)C(=O)N[C@@H](CCC(=O)O)C(=O)N[C@@H](C)C(=O)N[C@@H](C)C(=O)N[C@@H](CC(C)C)C(=O)N[C@@H](CCCNC(=N)N)C(=O)NCC(=O)N[C@@H](CO)C(=O)NCC(=O)N[C@@H](CSCC(=O)O[C@H]1CC[C@@]2(C)C(=CC[C@H]3[C@@H]4CC[C@H]([C@H](C)CCCC(C)C)[C@@]4(C)CC[C@@H]32)C1)C(N)=O
B2: peptide 79 (peptide)
peptide: Ac-A[hCys]YAA[hCys]IEALIRKAQEQQEKNEAALR-NH2
modifications: linker 2-6 via B21
SMILES: CC[C@H](C)[C@H](NC(=O)[C@@H]1CCSCc2ccc3ccc(cc3c2)CSCC[C@H](NC(=O)[C@H](C)NC(C)=O)C(=O)N[C@@H](Cc2ccc(O)cc2)C(=O)N[C@@H](C)C(=O)N[C@@H](C)C(=O)N1)C(=O)N[C@@H](CCC(=O)O)C(=O)N[C@@H](C)C(=O)N[C@@H](CC(C)C)C(=O)N[C@H](C(=O)N[C@@H](CCCNC(=N)N)C(=O)N[C@@H](CCCCN)C(=O)N[C@@H](C)C(=O)N[C@@H](CCC(N)=O)C(=O)N[C@@H](CCC(=O)O)C(=O)N[C@@H](CCC(N)=O)C(=O)N[C@@H](CCC(N)=O)C(=O)N[C@@H](CCC(=O)O)C(=O)N[C@@H](CCCCN)C(=O)N[C@@H](CC(N)=O)C(=O)N[C@@H](CCC(=O)O)C(=O)N[C@@H](C)C(=O)N[C@@H](C)C(=O)N[C@@H](CC(C)C)C(=O)N[C@@H](CCCNC(=N)N)C(N)=O)[C@@H](C)CC
B3: peptide 80 (peptide)
peptide: Ac-A[hCys]YAA[hCys]IEALIRKAQEQQEKNEAALR-NH2
modifications: linker 2-6 via B21
SMILES: CC[C@H](C)[C@H](NC(=O)[C@@H]1CCSCc2ccc3ccc(cc3c2)CSCC[C@H](NC(=O)[C@H](C)NC(C)=O)C(=O)N[C@@H](Cc2ccc(O)cc2)C(=O)N[C@@H](C)C(=O)N[C@@H](C)C(=O)N1)C(=O)N[C@@H](CCC(=O)O)C(=O)N[C@@H](C)C(=O)N[C@@H](CC(C)C)C(=O)N[C@H](C(=O)N[C@@H](CCCNC(=N)N)C(=O)N[C@@H](CCCCN)C(=O)N[C@@H](C)C(=O)N[C@@H](CCC(N)=O)C(=O)N[C@@H](CCC(=O)O)C(=O)N[C@@H](CCC(N)=O)C(=O)N[C@@H](CCC(N)=O)C(=O)N[C@@H](CCC(=O)O)C(=O)N[C@@H](CCCCN)C(=O)N[C@@H](CC(N)=O)C(=O)N[C@@H](CCC(=O)O)C(=O)N[C@@H](C)C(=O)N[C@@H](C)C(=O)N[C@@H](CC(C)C)C(=O)N[C@@H](CCCNC(=N)N)C(N)=O)[C@@H](C)CC

What follows are binders tested against gp41 of HIV-1 strain HXB2D with mutation V38A (HIV-1 strain HXB2D, UniProt P04578) (assay: cell-based or functional assay).

Question: How did the “fold change in EC50, HIV-HXB2D V38A mutant” value (“fold change in EC50” for short) turn out when B1 was run?
Answer: The value was 1 fold.

Question: How did the “fold change in EC50” value turn out when B2 was run?
Answer: The value was 27 fold.

Question: Which “fold change in EC50” value does the source give for Ac-ACYAA[dC]IEALIRAAQEQQEKNEAALR-NH2 (linker 2-6 via pXylylene; not fully specified) [peptide 83] here?
Answer: The value was 6 fold.

Question: B3 was tested. Which “fold change in EC50” value did it give?
Answer: Its value is 40 fold.

From patent US20140357577A1, “HIV Membrane Fusion Inhibitors” (priority 2011, published 2014)
